According to the supplement of paper PMC10065799, “High-throughput profiling of sequence recognition by tyrosine kinases and SH2 domains using bacterial peptide display” (eLife, 2023):
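Note: 11-residue human phosphosite peptides and single-mutation variants displayed on the E. coli surface, counted by deep sequencing, each peptide's frequency after selection divided by its frequency in the unselected input library; frequency after pTyr selection over input frequency; kinase dosed for 20-30% of maximal phosphorylation in three min.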

Each sequence was assayed against MERTK (UniProt Q12866) (assay: phosphorylation enrichment, bacterial display (enrichment ratio); higher = better substrate or ligand; peptides without Tyr show the background).
Chain of MERTK (Q12866 whole entry, looked up): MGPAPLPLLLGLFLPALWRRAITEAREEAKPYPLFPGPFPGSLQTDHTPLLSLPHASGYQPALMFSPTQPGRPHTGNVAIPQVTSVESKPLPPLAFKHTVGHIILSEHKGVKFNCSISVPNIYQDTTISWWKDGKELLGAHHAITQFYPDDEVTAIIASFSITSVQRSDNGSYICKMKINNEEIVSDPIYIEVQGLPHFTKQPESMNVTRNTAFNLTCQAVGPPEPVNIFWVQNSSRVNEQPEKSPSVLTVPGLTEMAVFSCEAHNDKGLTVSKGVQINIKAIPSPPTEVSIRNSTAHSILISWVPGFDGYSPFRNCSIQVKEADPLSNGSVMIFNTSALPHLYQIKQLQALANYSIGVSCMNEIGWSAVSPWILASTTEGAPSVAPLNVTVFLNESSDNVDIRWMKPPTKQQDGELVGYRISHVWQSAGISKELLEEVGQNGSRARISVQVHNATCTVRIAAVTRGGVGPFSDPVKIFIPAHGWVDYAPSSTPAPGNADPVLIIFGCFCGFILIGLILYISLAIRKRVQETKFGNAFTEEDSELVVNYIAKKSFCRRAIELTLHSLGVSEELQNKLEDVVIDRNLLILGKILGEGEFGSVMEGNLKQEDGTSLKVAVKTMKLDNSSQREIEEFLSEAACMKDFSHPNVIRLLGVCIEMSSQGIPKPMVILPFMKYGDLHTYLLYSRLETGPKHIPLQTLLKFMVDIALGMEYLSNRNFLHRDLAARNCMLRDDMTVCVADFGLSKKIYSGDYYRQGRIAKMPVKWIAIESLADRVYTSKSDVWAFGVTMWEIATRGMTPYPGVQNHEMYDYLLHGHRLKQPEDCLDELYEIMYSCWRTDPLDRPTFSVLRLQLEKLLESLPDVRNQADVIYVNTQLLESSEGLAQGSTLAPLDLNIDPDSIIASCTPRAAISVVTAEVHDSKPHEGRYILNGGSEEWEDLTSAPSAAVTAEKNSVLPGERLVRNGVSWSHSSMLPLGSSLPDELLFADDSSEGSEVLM
Work on EAEPFYCSLRD [NPHS1_Y1139_R1140C_YF] yielded a phosphorylation enrichment of 1.67. HQKKPYCHAHN [NRAP_Y53] was tested, and the phosphorylation enrichment was 0.623. LTERDYSFVTT [ACTG2_Y199_G198D] showed a phosphorylation enrichment of 1.26. In the case of LAVPLYKNGVK [CPS1_Y1069], the phosphorylation enrichment is reported as 1.42. Sequence YSNKLHYQLEQ [PDPR_Y109_Y109H] has a phosphorylation enrichment of 0.484. In the case of SVMAEYGLFGA [VSX2_Y219_YF], the phosphorylation enrichment is reported as 0.475. Work on ADDSFYTARSA [ZAP70_Y493_YF] yielded a phosphorylation enrichment of 0.681. With INNIDYYKKTT [FGFR2_Y656] the phosphorylation enrichment was 0.501. For EWQQIYTFDSG [JUP_Y20_T19I_YF], the phosphorylation enrichment was 9.37. With TRSYDYMEGED [FGF7_Y58_G62E] the phosphorylation enrichment was 0.591. Sequence CTTIHYNFMCH [TP53_Y234_N239H_YF] has a phosphorylation enrichment of 0.444. In the case of VDHFGYNKDDK [APOB_Y740_T741N], the phosphorylation enrichment is reported as 0.434. With VATRWYRSLEL [CDKL5_Y177_P180L] the phosphorylation enrichment was 0.366. HFGCVYRGTLL [MET_Y1093_H1094R] was tested, and the phosphorylation enrichment was 0.573. Sequence PEIIAYQPFGK [PRKCG_Y529_YF] has a phosphorylation enrichment of 0.653. For RAILNYIASKF [GSTA3_Y74_YF], the phosphorylation enrichment was 1.7. Sequence VRSTEYPCAGL has a phosphorylation enrichment of 0.362. TKDTFYQQPMF [GBA_Y451_K452Q] showed a phosphorylation enrichment of 4.31. With KEIHAYRKLLE [LMNA_Y376_M371K] the phosphorylation enrichment was 0.414. Work on APGNAYGDAGY [SYP_Y250_D248N] yielded a phosphorylation enrichment of 0.423. For PFGQWYESHFA [RPS8_Y113_R110G_YF], the phosphorylation enrichment was 4.87. In the case of FQEKSYIKGTS [LCTL_Y331_L326F], the phosphorylation enrichment is reported as 0.321. NHRNQYQALKT [CLSPN_Y887_P892T] showed a phosphorylation enrichment of 0.4. EFNLMYHGTKE [IRF6_Y97_D98H] was tested, and the phosphorylation enrichment was 0.442. VVSLFYGTALF [OR10C1_Y251_M246V] gave a phosphorylation enrichment of 0.7. For VRFMADTDETF [F8_Y450_Y450D], the phosphorylation enrichment was 0.451. VQNIVYRTASI [CYP39A1_Y102] showed a phosphorylation enrichment of 0.334. SSWKLYPRMLR [HAO1_Y50_R46S] was tested, and the phosphorylation enrichment was 0.432. KVALVYGQMNQ [ATP5F1B_Y269_E274Q] gave a phosphorylation enrichment of 0.425. AGREIYESEKC [TTN_Y4424_D4427E] was tested, and the phosphorylation enrichment was 0.547. In the case of TYQYKYPEGSS [TGM4_Y440_E437Q], the phosphorylation enrichment is reported as 0.429. TENAGYFFQVS was tested, and the phosphorylation enrichment was 0.397. For ASRKFYAMKIL [AKT3_Y174_G171R_YF], the phosphorylation enrichment was 0.441.

These sequences were tested against FGFR1 (UniProt P11362) in the same assay as above.
Chain of FGFR1 (P11362 whole entry, looked up): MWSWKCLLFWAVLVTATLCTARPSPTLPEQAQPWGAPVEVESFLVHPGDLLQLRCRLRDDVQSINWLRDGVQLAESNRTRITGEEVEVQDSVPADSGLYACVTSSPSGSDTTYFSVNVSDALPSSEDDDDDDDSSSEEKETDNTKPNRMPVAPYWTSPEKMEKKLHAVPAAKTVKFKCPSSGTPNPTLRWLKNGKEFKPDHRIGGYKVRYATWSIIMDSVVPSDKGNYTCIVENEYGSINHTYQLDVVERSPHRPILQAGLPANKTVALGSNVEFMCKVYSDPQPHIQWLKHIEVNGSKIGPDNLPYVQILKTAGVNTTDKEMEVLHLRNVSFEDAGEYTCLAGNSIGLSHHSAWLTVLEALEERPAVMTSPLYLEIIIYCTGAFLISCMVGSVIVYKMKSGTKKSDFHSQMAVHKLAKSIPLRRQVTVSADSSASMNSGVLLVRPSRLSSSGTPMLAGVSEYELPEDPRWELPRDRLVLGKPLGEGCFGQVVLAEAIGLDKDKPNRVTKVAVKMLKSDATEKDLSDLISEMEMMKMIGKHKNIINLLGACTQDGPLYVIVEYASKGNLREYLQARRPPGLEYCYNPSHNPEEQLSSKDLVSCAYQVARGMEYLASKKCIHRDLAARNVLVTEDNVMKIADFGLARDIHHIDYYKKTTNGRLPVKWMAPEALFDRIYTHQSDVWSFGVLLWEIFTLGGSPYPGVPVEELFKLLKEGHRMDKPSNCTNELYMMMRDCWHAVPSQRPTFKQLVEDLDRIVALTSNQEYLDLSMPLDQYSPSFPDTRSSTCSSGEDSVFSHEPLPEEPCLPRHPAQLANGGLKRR
In the case of EAEPFYCSLRD [NPHS1_Y1139_R1140C_YF], the phosphorylation enrichment is reported as 0.668. HQKKPYCHAHN [NRAP_Y53] gave a phosphorylation enrichment of 0.983. In the case of LTERDYSFVTT [ACTG2_Y199_G198D], the phosphorylation enrichment is reported as 7.67. Sequence LAVPLYKNGVK [CPS1_Y1069] has a phosphorylation enrichment of 0.904. In the case of YSNKLHYQLEQ [PDPR_Y109_Y109H], the phosphorylation enrichment is reported as 0.435. SVMAEYGLFGA [VSX2_Y219_YF] showed a phosphorylation enrichment of 0.488. ADDSFYTARSA [ZAP70_Y493_YF] gave a phosphorylation enrichment of 0.55. In the case of INNIDYYKKTT [FGFR2_Y656], the phosphorylation enrichment is reported as 0.524. In the case of EWQQIYTFDSG [JUP_Y20_T19I_YF], the phosphorylation enrichment is reported as 7.82. Sequence TRSYDYMEGED [FGF7_Y58_G62E] has a phosphorylation enrichment of 5.52. Work on CTTIHYNFMCH [TP53_Y234_N239H_YF] yielded a phosphorylation enrichment of 0.507. With VDHFGYNKDDK [APOB_Y740_T741N] the phosphorylation enrichment was 0.465. With VATRWYRSLEL [CDKL5_Y177_P180L] the phosphorylation enrichment was 0.436. For HFGCVYRGTLL [MET_Y1093_H1094R], the phosphorylation enrichment was 0.884. Work on PEIIAYQPFGK [PRKCG_Y529_YF] yielded a phosphorylation enrichment of 0.777. Sequence RAILNYIASKF [GSTA3_Y74_YF] has a phosphorylation enrichment of 1.08. VRSTEYPCAGL gave a phosphorylation enrichment of 0.447. Sequence TKDTFYQQPMF [GBA_Y451_K452Q] has a phosphorylation enrichment of 0.605. For KEIHAYRKLLE [LMNA_Y376_M371K], the phosphorylation enrichment was 0.429. Work on APGNAYGDAGY [SYP_Y250_D248N] yielded a phosphorylation enrichment of 0.428. PFGQWYESHFA [RPS8_Y113_R110G_YF] was tested, and the phosphorylation enrichment was 1.01. FQEKSYIKGTS [LCTL_Y331_L326F] was tested, and the phosphorylation enrichment was 0.423. NHRNQYQALKT [CLSPN_Y887_P892T] was tested, and the phosphorylation enrichment was 0.503. For EFNLMYHGTKE [IRF6_Y97_D98H], the phosphorylation enrichment was 0.489. VVSLFYGTALF [OR10C1_Y251_M246V] gave a phosphorylation enrichment of 0.566. VRFMADTDETF [F8_Y450_Y450D] showed a phosphorylation enrichment of 0.505. For VQNIVYRTASI [CYP39A1_Y102], the phosphorylation enrichment was 0.414. SSWKLYPRMLR [HAO1_Y50_R46S] showed a phosphorylation enrichment of 0.44. With KVALVYGQMNQ [ATP5F1B_Y269_E274Q] the phosphorylation enrichment was 0.424. AGREIYESEKC [TTN_Y4424_D4427E] gave a phosphorylation enrichment of 0.535. TYQYKYPEGSS [TGM4_Y440_E437Q] was tested, and the phosphorylation enrichment was 0.425. In the case of TENAGYFFQVS, the phosphorylation enrichment is reported as 0.714. ASRKFYAMKIL [AKT3_Y174_G171R_YF] showed a phosphorylation enrichment of 0.578.

The sequences below were run on Fer (mouse) in the same assay as above.
In the case of EAEPFYCSLRD [NPHS1_Y1139_R1140C_YF], the phosphorylation enrichment is reported as 2.19. Work on HQKKPYCHAHN [NRAP_Y53] yielded a phosphorylation enrichment of 1.85. For LTERDYSFVTT [ACTG2_Y199_G198D], the phosphorylation enrichment was 2.82. LAVPLYKNGVK [CPS1_Y1069] gave a phosphorylation enrichment of 1.04. YSNKLHYQLEQ [PDPR_Y109_Y109H] gave a phosphorylation enrichment of 0.461. Sequence SVMAEYGLFGA [VSX2_Y219_YF] has a phosphorylation enrichment of 0.424. In the case of ADDSFYTARSA [ZAP70_Y493_YF], the phosphorylation enrichment is reported as 0.451. INNIDYYKKTT [FGFR2_Y656] showed a phosphorylation enrichment of 0.334. For EWQQIYTFDSG [JUP_Y20_T19I_YF], the phosphorylation enrichment was 4.03. Work on TRSYDYMEGED [FGF7_Y58_G62E] yielded a phosphorylation enrichment of 0.645. For CTTIHYNFMCH [TP53_Y234_N239H_YF], the phosphorylation enrichment was 0.478. Work on VDHFGYNKDDK [APOB_Y740_T741N] yielded a phosphorylation enrichment of 0.398. With VATRWYRSLEL [CDKL5_Y177_P180L] the phosphorylation enrichment was 0.357. Work on HFGCVYRGTLL [MET_Y1093_H1094R] yielded a phosphorylation enrichment of 0.702. Work on PEIIAYQPFGK [PRKCG_Y529_YF] yielded a phosphorylation enrichment of 0.672. In the case of RAILNYIASKF [GSTA3_Y74_YF], the phosphorylation enrichment is reported as 0.994. VRSTEYPCAGL showed a phosphorylation enrichment of 0.292. TKDTFYQQPMF [GBA_Y451_K452Q] showed a phosphorylation enrichment of 2.41. With KEIHAYRKLLE [LMNA_Y376_M371K] the phosphorylation enrichment was 0.468. APGNAYGDAGY [SYP_Y250_D248N] showed a phosphorylation enrichment of 0.452. PFGQWYESHFA [RPS8_Y113_R110G_YF] gave a phosphorylation enrichment of 17.7. Sequence FQEKSYIKGTS [LCTL_Y331_L326F] has a phosphorylation enrichment of 0.355. In the case of NHRNQYQALKT [CLSPN_Y887_P892T], the phosphorylation enrichment is reported as 0.499. Sequence EFNLMYHGTKE [IRF6_Y97_D98H] has a phosphorylation enrichment of 0.451. VVSLFYGTALF [OR10C1_Y251_M246V] showed a phosphorylation enrichment of 1.1. VRFMADTDETF [F8_Y450_Y450D] gave a phosphorylation enrichment of 0.628. With VQNIVYRTASI [CYP39A1_Y102] the phosphorylation enrichment was 0.34. For SSWKLYPRMLR [HAO1_Y50_R46S], the phosphorylation enrichment was 0.454. KVALVYGQMNQ [ATP5F1B_Y269_E274Q] was tested, and the phosphorylation enrichment was 0.506. In the case of AGREIYESEKC [TTN_Y4424_D4427E], the phosphorylation enrichment is reported as 0.47. With TYQYKYPEGSS [TGM4_Y440_E437Q] the phosphorylation enrichment was 0.509. Sequence TENAGYFFQVS has a phosphorylation enrichment of 0.414. With ASRKFYAMKIL [AKT3_Y174_G171R_YF] the phosphorylation enrichment was 0.362.

These sequences were tested against FGFR3 (UniProt P22607) in the same assay as above.
Chain of FGFR3 (P22607 whole entry, looked up): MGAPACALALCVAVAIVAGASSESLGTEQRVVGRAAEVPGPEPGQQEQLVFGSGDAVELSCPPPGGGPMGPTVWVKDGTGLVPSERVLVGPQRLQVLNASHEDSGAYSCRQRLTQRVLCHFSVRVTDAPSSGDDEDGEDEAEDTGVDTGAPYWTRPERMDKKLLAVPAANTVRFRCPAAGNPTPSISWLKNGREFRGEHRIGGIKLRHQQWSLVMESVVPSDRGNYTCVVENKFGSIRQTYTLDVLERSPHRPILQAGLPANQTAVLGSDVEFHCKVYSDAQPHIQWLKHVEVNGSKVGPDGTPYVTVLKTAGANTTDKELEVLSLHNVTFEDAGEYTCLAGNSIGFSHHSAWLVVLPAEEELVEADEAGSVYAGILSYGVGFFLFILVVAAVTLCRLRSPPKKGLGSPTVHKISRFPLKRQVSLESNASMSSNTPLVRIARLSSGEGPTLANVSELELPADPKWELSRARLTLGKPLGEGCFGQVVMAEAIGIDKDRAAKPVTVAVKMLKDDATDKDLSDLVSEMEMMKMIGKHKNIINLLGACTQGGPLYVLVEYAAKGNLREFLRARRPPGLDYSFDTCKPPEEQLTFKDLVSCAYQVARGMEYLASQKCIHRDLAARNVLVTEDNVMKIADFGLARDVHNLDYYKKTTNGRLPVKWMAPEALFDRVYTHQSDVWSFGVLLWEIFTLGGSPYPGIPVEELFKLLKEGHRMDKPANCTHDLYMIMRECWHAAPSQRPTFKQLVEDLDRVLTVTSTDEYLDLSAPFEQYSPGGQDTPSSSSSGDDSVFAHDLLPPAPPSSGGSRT
For EAEPFYCSLRD [NPHS1_Y1139_R1140C_YF], the phosphorylation enrichment was 0.896. HQKKPYCHAHN [NRAP_Y53] was tested, and the phosphorylation enrichment was 2.09. With LTERDYSFVTT [ACTG2_Y199_G198D] the phosphorylation enrichment was 4.74. With LAVPLYKNGVK [CPS1_Y1069] the phosphorylation enrichment was 0.836. In the case of YSNKLHYQLEQ [PDPR_Y109_Y109H], the phosphorylation enrichment is reported as 0.592. Work on SVMAEYGLFGA [VSX2_Y219_YF] yielded a phosphorylation enrichment of 0.553. ADDSFYTARSA [ZAP70_Y493_YF] gave a phosphorylation enrichment of 0.904. For INNIDYYKKTT [FGFR2_Y656], the phosphorylation enrichment was 0.473. EWQQIYTFDSG [JUP_Y20_T19I_YF] showed a phosphorylation enrichment of 5.97. TRSYDYMEGED [FGF7_Y58_G62E] was tested, and the phosphorylation enrichment was 0.869. Work on CTTIHYNFMCH [TP53_Y234_N239H_YF] yielded a phosphorylation enrichment of 0.552. VDHFGYNKDDK [APOB_Y740_T741N] showed a phosphorylation enrichment of 0.493. VATRWYRSLEL [CDKL5_Y177_P180L] was tested, and the phosphorylation enrichment was 0.473. With HFGCVYRGTLL [MET_Y1093_H1094R] the phosphorylation enrichment was 1.06. PEIIAYQPFGK [PRKCG_Y529_YF] was tested, and the phosphorylation enrichment was 0.796. RAILNYIASKF [GSTA3_Y74_YF] was tested, and the phosphorylation enrichment was 0.861. Work on VRSTEYPCAGL yielded a phosphorylation enrichment of 0.497. Work on TKDTFYQQPMF [GBA_Y451_K452Q] yielded a phosphorylation enrichment of 0.589. Sequence KEIHAYRKLLE [LMNA_Y376_M371K] has a phosphorylation enrichment of 0.487. APGNAYGDAGY [SYP_Y250_D248N] showed a phosphorylation enrichment of 0.512. In the case of PFGQWYESHFA [RPS8_Y113_R110G_YF], the phosphorylation enrichment is reported as 1.01. Sequence FQEKSYIKGTS [LCTL_Y331_L326F] has a phosphorylation enrichment of 0.426. Sequence NHRNQYQALKT [CLSPN_Y887_P892T] has a phosphorylation enrichment of 0.439. Work on EFNLMYHGTKE [IRF6_Y97_D98H] yielded a phosphorylation enrichment of 0.579. Work on VVSLFYGTALF [OR10C1_Y251_M246V] yielded a phosphorylation enrichment of 0.804. VRFMADTDETF [F8_Y450_Y450D] was tested, and the phosphorylation enrichment was 0.755. For VQNIVYRTASI [CYP39A1_Y102], the phosphorylation enrichment was 0.442. In the case of SSWKLYPRMLR [HAO1_Y50_R46S], the phosphorylation enrichment is reported as 0.472. In the case of KVALVYGQMNQ [ATP5F1B_Y269_E274Q], the phosphorylation enrichment is reported as 0.634. Work on AGREIYESEKC [TTN_Y4424_D4427E] yielded a phosphorylation enrichment of 0.638. With TYQYKYPEGSS [TGM4_Y440_E437Q] the phosphorylation enrichment was 0.63. TENAGYFFQVS showed a phosphorylation enrichment of 0.774. For ASRKFYAMKIL [AKT3_Y174_G171R_YF], the phosphorylation enrichment was 0.518.
